These results are taken from patent US20230000998A1.

For the experiment, the target named is human TrkB receptor (overexpressed on TrkB-NFAT-bla CHO-K1 reporter cells) (human) (UniProt Q16620). Briefly: cell-based or functional assay.
human TrkB receptor (overexpressed on TrkB-NFAT-bla CHO-K1 reporter cells) (human), sequence (Q16620 32-822): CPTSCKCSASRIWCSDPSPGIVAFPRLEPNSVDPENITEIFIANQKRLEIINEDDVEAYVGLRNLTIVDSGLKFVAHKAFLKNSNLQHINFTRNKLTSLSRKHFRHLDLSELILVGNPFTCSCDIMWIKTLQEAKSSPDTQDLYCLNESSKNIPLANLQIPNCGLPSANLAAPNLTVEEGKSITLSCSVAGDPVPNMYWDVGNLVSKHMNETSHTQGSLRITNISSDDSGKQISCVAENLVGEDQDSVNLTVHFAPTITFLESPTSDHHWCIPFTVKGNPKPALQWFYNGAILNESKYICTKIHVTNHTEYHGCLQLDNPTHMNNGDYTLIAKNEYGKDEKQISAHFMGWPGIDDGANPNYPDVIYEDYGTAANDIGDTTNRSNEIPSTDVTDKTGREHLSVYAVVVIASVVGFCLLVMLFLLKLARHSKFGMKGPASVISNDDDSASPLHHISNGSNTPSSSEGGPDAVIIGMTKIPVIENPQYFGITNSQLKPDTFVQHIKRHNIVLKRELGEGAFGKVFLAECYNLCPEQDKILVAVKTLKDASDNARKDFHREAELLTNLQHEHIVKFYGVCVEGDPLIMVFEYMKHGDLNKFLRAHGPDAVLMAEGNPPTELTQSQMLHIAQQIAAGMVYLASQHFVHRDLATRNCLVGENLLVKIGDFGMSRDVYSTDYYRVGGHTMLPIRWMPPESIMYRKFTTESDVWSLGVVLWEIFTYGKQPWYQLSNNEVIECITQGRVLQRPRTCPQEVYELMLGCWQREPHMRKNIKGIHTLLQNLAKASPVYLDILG

On to “BDNF (brain derived neurotrophic factor; Peprotech) (from UniProt P23560 129-247) (ligand)”, for which the EC50 of beta-lactamase reporter response in TrkB-NFAT-bla CHO-K1 cells amounted to 0.055 nM.
